Reference: IntAct's records for PubMed 24525236

Target: flt3_human FLT3 (UniProt P36888)
Sequence (P36888 whole entry): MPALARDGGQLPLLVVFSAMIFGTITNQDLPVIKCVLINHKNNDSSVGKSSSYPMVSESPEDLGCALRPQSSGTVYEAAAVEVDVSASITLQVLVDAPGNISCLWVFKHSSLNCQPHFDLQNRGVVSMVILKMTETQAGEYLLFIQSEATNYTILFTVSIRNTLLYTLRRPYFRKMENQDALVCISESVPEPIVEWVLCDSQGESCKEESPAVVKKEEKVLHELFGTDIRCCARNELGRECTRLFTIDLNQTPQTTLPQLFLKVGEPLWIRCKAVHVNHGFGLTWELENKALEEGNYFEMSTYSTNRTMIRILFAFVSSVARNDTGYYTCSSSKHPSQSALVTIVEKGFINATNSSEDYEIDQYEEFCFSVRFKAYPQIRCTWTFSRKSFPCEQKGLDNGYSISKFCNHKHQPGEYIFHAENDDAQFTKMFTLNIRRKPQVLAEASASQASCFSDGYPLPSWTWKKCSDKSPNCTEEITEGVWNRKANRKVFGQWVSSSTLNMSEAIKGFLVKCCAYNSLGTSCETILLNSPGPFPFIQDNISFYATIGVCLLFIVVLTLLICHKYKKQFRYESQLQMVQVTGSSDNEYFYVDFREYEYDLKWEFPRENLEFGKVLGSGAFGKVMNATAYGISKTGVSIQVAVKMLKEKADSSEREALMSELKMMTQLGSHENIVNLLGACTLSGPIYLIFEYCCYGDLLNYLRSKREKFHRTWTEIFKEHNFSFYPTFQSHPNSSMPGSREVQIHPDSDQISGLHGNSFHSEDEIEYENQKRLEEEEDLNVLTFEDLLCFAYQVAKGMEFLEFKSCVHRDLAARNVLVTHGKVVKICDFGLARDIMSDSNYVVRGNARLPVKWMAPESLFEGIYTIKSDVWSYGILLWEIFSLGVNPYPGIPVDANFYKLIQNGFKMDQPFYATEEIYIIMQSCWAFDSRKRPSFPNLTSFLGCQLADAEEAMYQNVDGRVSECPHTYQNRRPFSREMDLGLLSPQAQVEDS

effect of a mutation on the interaction: decreasing interaction
Substance: Tyrosine-protein kinase SYK (Homo sapiens) (from UniProt P43405) R195G;R197L
